# From patent US20070231812A1, “Method of Screening Antidiabetic Agents” (priority 2004, published 2007)
# Legend:
# endogenous SOCS-2 gene = assay: Endogenous SOCS-2 mRNA in HepG2 cells by quantitative PCR with or without IL-6; type: cell-based, human; settings: IL-6 10 ng/mL, 3 hours, compensated with G3PDH, relative to absence of IL-6
# Protocol: First, an endogenous SOCS-2 promoter activity was measured. Since a stimulation capable of promoting the SOCS-2 promoter activity in pancreatic β cells was unknown, an amount of SOCS-2 mRNA was measured when stimulated by IL-6, which was a typical stimulation capable of increasing a transcriptional activity of STAT1, STAT3, or STAT5. It is considered that STAT1, STAT3, and STAT5 transduce an external signal, and finally promote a SOCS-2 transcriptional activity. More particularly, human HepG2 cells in which the IL-6 reactivity was confirmed were used to measure and compare amounts of endogenous SOCS-2 mRNA expressed when stimulated with or without IL-6 stimulation. The amount of gene expressed was compensated by measuring an amount of a G3PDH (Glyceraldehyde 3-phosphate dehydrogenase) gene expressed, at the same time. […] In this measuring system, an amount of fluorescence from a SYBR Green I dye incorporated into double-stranded DNAs amplified by PCR was detected and quantified in real time, to determine the amount of gene expressed. […]
# The amount of […] SOCS-2 gene expressed was compensated with that of the G3PDH gene expressed in accordance with the following equation: C=A/B [C: Compensated amount of SOCS-2 expressed, A: Measured value of the SOCS-2 gene expressed, and B: Measured value of the G3PDH gene expressed]
# SOCS-2 promoter = SOCS-2 promoter reporter (luciferase) activity in HepG2 cells with or without IL-6; type: cell-based, human; settings: IL-6 stimulation 3 hours, standardized by β-galactosidase activity, relative to absence of IL-6
# Protocol: On the basis of the registered sequence (NCBI Reference Sequences No. NM_003877) of human SOCS-2, a genomic sequence which accords with the sequence was specified as the sequence of NCBI GenBank accession No. NC—000012.5—93000001—94000000. To obtain a DNA consisting of nucleotides 893,596-898,678 of NC—000012.5—93000001—94000000, which was considered the promoter region of human SOCS-2, i.e., a DNA consisting of the nucleotide sequence of SEQ ID NO: 3, the first PCR was carried out using synthetic oligo DNAs [5′-gtg[…]-3′ (SEQ ID NO: 8) and 5′-gtg[…]-3′ (SEQ ID NO: 9)] having restriction enzyme sites […] and NheI, respectively, and an LA Taq (TAKARA; catalogue code RR002A). The resulting PCR product was diluted to 1/50 with sterile water, and the second PCR was carried out using the diluted solution as a template, synthetic oligo DNAs [5′-gtg[…]-3′ (SEQ ID NO: 10) and 5′-gtg[…]-3′ (SEQ ID NO: 11)], and an LA Taq (TAKARA; catalogue code RR002A). […]
# HepG2 cells (ATCC accession No. HB-8065) was transformed with the SOCS-2 reporter vector or the control vector prepared in Example 3(1) to measure the activity when stimulated with or without IL-6. […] The cells were lysed with a cell lysis solution LCβ (Toyo Ink MFG), and a luciferase activity was measured using a PicaGene coloring kit (Toyo Ink MFG; 309-04321). […]
# MIN6B1 cells = assay: Insulin secreted from MIN6B1 cells overexpressing SOCS-2; type: cell-based, mouse; settings: 20 minutes, adenovirus infected MIN6B1 cells
# Protocol: Mouse pancreatic β cell line MIN6B1 cells [Endocrinol. (2003) 144,. 1368-1379] were infected with SOCS-2/pAdTrack-CMV or pAdTrack-CMV (control) to prepare pancreatic β cells overexpressing SOCS-2, as described below.
# MIN6B1 cells (2×10^5 cells) were seeded on a 24-well plate, and cultured for 24 hours in 0.5 mL of a minimum essential medium DMEM (GIBCO) containing 10% fetal bovine serum (SIGMA). SOCS-2/pAdTrack-CMV or pAdTrack-CMV (control) was added to each medium at a concentration of 4×10^8 pfu/well.
# After 14 hours from the adenovirus infection of pancreatic β cells, each medium was aspirated, and cells were washed three times with KRB-HEPES (140 mmol/L NaCl, 3.6 mmol/L KCl, 0.5 mmol/L NaH2PO4, 0.5 mmol/L MgSO4, 1.5 mmol/L-CaCl2, 10 mmol/L Hepes, 2 mmol/L NaHCO3, and 0.1% BSA, pH 7.4), and incubated in 2.8 mmol/L glucose-containing KRB-HEPES (1 mL) at 37° C. for 1 hour in the presence of 5% CO2.
# After the buffer was aspirated, 2.8 mmol/L or 16.8 mmol/L glucose-containing KRB-HEPES was added. The cells were further incubated at 37° C. for 20 minutes in the presence of 5% CO2, and an amount of insulin secreted into the supernatant was measured.
# A commercially available insulin radioimmunoassay kit (Rat insulin [125I] RIA system; Amersham Bioscience) was used for the measurement of the amount of insulin secreted.
# [1] = system: rat pancreatic Langerhans islets; assay: Insulin secreted from rat pancreatic Langerhans islets overexpressing SOCS-2; type: cell-based; settings: 90 minutes, adenovirus infected rat islets
# Protocol: After 4 male rats (6-8 weeks old, 350 to 450 g in weight) were anesthetized, the abdomen was incised and exposed. A bile duct of the liver was ligated, and blood was drawn from the heart. From the bile duct, 5 mL of HBSS-HEPES (136.8 mmol/L NaCl, 5.3 mmol/L KCl, 0.8 mmol/L MgSO4, 1 mmol/L Na2HPO4, 0.44 mmol/L KH2PO4, 4.1 mmol/L NaHCO3, 10 mmol/L Hepes, 1 mmol/L CaCl2, and 2 mmol/L glucose, pH 7.2) supplemented with 0.02% Liberase (Roche Diagnostic) was injected using a winged needle. The pancreas was removed and transferred to a tube containing 5 mL of HBSS-HEPE, and incubated at 37° C. for 20 minutes. After the incubation, the whole was stirred, and ice-cold HBSS-HEPES-0.35% BSA was added. The mixture was centrifuged at 1500 rpm for 1 minute to remove the supernatant. To the precipitated tissues, 10 mL of HBSS-HEPES-0.35% BSA was added, and the tissues were suspended using a needle. This washing step was repeated twice. After the centrifugation, the supernatant was removed, and 10 mL of a 8.3% Ficoll-Conray solution was added and suspended. Further, 10 mL of HBSS-HEPES-0.35% BSA was added, and the whole was centrifuged for 20 minutes. After the centrifugation, pancreatic Langerhans islets between two liquid layers were collected. To the collected pancreatic Langerhans islets, 10 mL of HBSS-HEPES-0.35% BSA was added, and the whole was centrifuged. […]
# [2] = 16.8 mmol/L glucose, p<0.01 vs control
molecule,measurement,setting,value
"IL-6: typical stimulation capable of increasing a transcriptional activity of STAT1, STAT3, or STAT5 (R&D Systems)","expression of the endogenous SOCS-2 gene, factor of increase",endogenous SOCS-2 gene,approximately 2
same,"SOCS-2 reporter activity, factor of increase",SOCS-2 promoter,approximately 2
"SOCS-2: mouse SOCS-2 (amino acid sequence of SEQ ID NO: 2) overexpressed in pancreatic β cells via adenovirus vector pAdTrack-CMV (protein, listed as Mus sp.) MTLRCLEPSGNGADRTRSQWGTAGLPEEQSPEAARLAKALRELSQTGWYWGSMTVNEAKEKLKEAPEGTFLIRDSSHSDYLLTISVKTSAGPTNLRIEYQDGKFRLDSIICVKSKLKQFDSVVHLIDYYVQMCKDKRTGPEAPRNGTVHLYLTKPLYTSAPTLQHFCRLAINKCTGTIWGLPLPTRLKDYLEEYKFQV",insulin secretion versus control,MIN6B1 cells; 2.8 mmol/L glucose,no difference was observed
same,insulin secretion versus control,MIN6B1 cells; [2],inhibited the activity of promoting insulin secretion
same,insulin secretion versus control,[1]; 2.8 mmol/L glucose,no difference was observed
same,insulin secretion versus control,[1]; [2],inhibited the activity of promoting insulin secretion
